Measured values reported in publication PMC5670239 (2017).

What was measured:
Experiment in all cases: ITC
NELF-E 244-380 = target: T1, NELF-E 244-380 (Homo sapiens, UniProt P18615)
T1 chain: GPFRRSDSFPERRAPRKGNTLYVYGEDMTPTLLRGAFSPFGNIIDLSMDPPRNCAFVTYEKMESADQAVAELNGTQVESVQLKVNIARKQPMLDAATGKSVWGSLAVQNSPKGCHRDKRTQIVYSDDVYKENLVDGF

ARS2 763-871 = target: T2, ARS2 763-871 (Homo sapiens, UniProt Q9BXP5)
T2 chain: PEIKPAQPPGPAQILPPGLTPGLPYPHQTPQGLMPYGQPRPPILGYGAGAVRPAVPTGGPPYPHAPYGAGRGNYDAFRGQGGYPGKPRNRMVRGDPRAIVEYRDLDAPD

NELF-E 360-380 = target: T3, NELF-E 360-380 (Homo sapiens, UniProt P18615, m7GTP)
T3 chain: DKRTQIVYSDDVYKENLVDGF

ARS2 845-871 = target: T4, ARS2 845-871 (Homo sapiens, UniProt Q9BXP5, m7GTP)
T4 chain: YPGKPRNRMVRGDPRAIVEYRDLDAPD

PHAX = PHAX (Homo sapiens, UniProt Q9H814)
Chain of PHAX (Q9H814 2-394): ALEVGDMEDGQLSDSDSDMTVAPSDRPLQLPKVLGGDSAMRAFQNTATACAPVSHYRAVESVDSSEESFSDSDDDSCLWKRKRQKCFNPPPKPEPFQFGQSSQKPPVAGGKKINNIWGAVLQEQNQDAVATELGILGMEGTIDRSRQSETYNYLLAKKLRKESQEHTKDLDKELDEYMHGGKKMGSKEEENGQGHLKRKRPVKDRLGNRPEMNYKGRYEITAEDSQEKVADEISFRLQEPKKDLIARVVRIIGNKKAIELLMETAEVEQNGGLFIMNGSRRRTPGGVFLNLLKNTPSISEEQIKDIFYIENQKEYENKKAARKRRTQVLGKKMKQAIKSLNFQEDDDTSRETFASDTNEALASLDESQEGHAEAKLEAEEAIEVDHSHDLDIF

ARS2 827-871 = target: T5, ARS2 827-871 (Homo sapiens, UniProt Q9BXP5, m7GTP)
T5 chain: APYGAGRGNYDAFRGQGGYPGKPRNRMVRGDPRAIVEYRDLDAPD

PHAX 103-308 = target: T6, PHAX 103-308 (Homo sapiens, UniProt Q9H814)
T6 chain: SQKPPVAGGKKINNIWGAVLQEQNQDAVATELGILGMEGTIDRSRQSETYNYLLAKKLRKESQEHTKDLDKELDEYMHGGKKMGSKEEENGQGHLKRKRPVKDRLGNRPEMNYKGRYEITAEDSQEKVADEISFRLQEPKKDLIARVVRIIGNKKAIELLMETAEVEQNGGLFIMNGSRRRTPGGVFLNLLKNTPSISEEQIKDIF

B1: CBC (protein)
chain 1: MSRRRHSDENDGGQPHKRRKTSDANETEDHLESLICKVGEKSACSLESNLEGLAGVLEADLPNYKSKILRLLCTVARLLPEKLTIYTTLVGLLNARNYNFGGEFVEAMIRQLKESLKANNYNEAVYLVRFLSDLVNCHVIAAPSMVAMFENFVSVTQEEDVPQVRRDWYVYAFLSSLPWVGKELYEKKDAEMDRIFANTESYLKRRQKTHVPMLQVWTADKPHPQEEYLDCLWAQIQKLKKDRWQERHILRPYLAFDSILCEALQHNLPPFTPPPHTEDSVYPMPRVIFRMFDYTDDPEGPVMPGSHSVERFVIEENLHCIIKSHWKERKTCAAQLVSYPGKNKIPLNYHIVEVIFAELFQLPAPPHIDVMYTTLLIELCKLQPGSLPQVLAQATEMLYMRLDTMNTTCVDRFINWFSHHLSNFQFRWSWEDWSDCLSQDPESPKPKFVREVLEKCMRLSYHQRILDIVPPTFSALCPANPTCIYKYGDESSNSLPGHSVALCLAVAFKSKATNDEIFSILKDVPNPNQDDDDDEGFSFNPLKIEVFVQTLLHLAAKSFSHSFSALAKFHEVFKTLAESDEGKLHVLRVMFEVWRNHPQMIAVLVDKMIRTQIVDCAAVANWIFSSELSRDFTRLFVWEILHSTIRKMNKHVLKIQKELEEAKEKLARQHKRRSDDDDRSSDRKDGVLEEQIERLQEKVESAQSEQKNLFLVIFQRFIMILTEHLVRCETDGTSVLTPWYKNCIERLQQIFLQHHQIIQQYMVTLENLLFTAELDPHILAVFQQFCALQA
chain 2: SGGLLKALRSDSYVELSQYRDQHFRGDNEEQEKLLKKSCTLYVGNLSFYTTEEQIYELFSKSGDIKKIIMGLDKMKKTACGFCFVEYYSRADAENAMRYINGTRLDDRIIRTDWDAGFKEGRQYGRGRSGGQVRDEYRQDYDAGRGGYGKLAQNQ
modifications: m7GTP
Kd (NELF-E 244-380): ~50 nM
Kd (ARS2 763-871): 1000 nM

B2: CBC (protein)
chain 1: B1 chain 1
chain 2: B1 chain 2
Kd (NELF-E 360-380): ~3.3 µM
Kd (ARS2 845-871): 1100 nM
Kd (PHAX): 300 nM
Kd (NELF-E 244-380): ~400 nM
Kd (ARS2 827-871): 1000 nM
Kd (PHAX 103-308): 600 nM
